Reference: PMC3156716

Biological target: T1, His6-PhoP (Pseudomonas aeruginosa PAO1?) (UniProt Q9I4F9)
T1 sequence: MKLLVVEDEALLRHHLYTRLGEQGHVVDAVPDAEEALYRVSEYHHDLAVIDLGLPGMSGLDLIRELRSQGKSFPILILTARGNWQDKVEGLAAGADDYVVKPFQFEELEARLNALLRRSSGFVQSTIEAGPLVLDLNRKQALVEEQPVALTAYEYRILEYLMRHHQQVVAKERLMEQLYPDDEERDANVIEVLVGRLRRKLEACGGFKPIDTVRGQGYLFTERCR
Experiment: EMSA
Details: DIG Gel Shift Kit 2nd Generation (Roche) per manufacturer; 6% native polyacrylamide gel; buffer, salt, pH and temperature not stated

| Sequence | binding |
| --- | --- |
| GAGGATCCCAGGAGTGATATTAGCGATTCCCAGTGCTCCCGCAACCTGCCAGAAAACCCAGCGAAGCTTCTTCGGCAGCCATTTTAGAAAAATATATTCCTTTAATTTCAATAAGTTACTTAAATTCACCGAGCGTTTTTGGCAAACCTCCCGGGCATTTATCTACTTAGGCTCACACGCCGTGTAAGTTAATGCTTACAAGAGCAGACACAAAAAACCCGGCGGATCCTC (double strand) [rsmZ promoter, full length] | binds |
| GAGGATCCGTGAATGGCCGGATTATAGCCAAGTGGCCGTGGCAACGGCATAGGCCGCGGAAGCGCCGTGCGGCGCCCGCGGCTTCGGGCCCGGTCAGGACTCGCCGCGCTCGCGGGCGATGGCACGGTAGCCGATGTCCTTGCGGTAGAAGCAGCCGTTCCAGCGGATCTTCTCGGCCAGGCGATAGGCCTGTTGCTGGGCGGCGGACACGCTCTCGCCGATGGCGGTGGCACAGAGCACGCGGCCGCCTCGAGTC (double strand) [truncated retS promoter, 255 bp, lacking PhoP box] | no binding |
